This note sets out measurements from the supplement of paper PMC10126150.

± gives the standard deviation of the averaged measurements.

For this data set, the system named is ATP. The data set is described as follows: switch fluorescence ratio, 500 uM ATP over buffer (Cy3 cluster intensity, sum of 5 cycles each) (fold (ratio)); higher = stronger signal-on switching upon ATP binding; sequences stand for … in TCGTCGGCAGCGTCAGATGTGTATAAGAGACAGTTTTTTTTTTTTTTTTTTTTTTTTT…TC. The following applies: aptamer strand: ATP DNA aptamer (quencher-CACCTGGGGGAGTATTGCGGAGGAAGG + anchor), 100 nM annealed; ATP concentration: 500 uM. The procedure, abridged: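 Between each of five buffer/ATP cycles, the flow-cell was stripped with NaOH and re-annealed. Each cycle imaged Cy3-labelled switching-strand clusters, annealed to 100 nM quencher-labelled ATP aptamer on a modified Illumina MiSeq flow-cell, first in selection buffer and then after 15 min with 500 uM ATP at 22 °C. The fluorescence ratio is summed target-cycle over summed buffer-cycle Cy3 intensity per cluster, averaged per switch-domain sequence, with clusters outside 100-1000 RFU excluded.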
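Further: ATP exposure 15 min at 22 °C before imaging.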

Regarding GGCTGAGCGG, the switch fluorescence ratio was found to be 0.976 ± 0.027. For GGCTGCCGGG the value was 1.02 ± 0.025; for GGCTGCTTTC, 1.03 ± 0.055; for GGCTGGATGG, 0.961 ± 0.014.

Consider GGCTGGCATT, for which the switch fluorescence ratio turned out to be 1.11 ± 0.15.

Regarding GGCTGGGCGA, the switch fluorescence ratio worked out at 0.983 ± 0.02. For the sequence GGCTGTGTTT, the switch fluorescence ratio turned out to be 0.981 ± 0.028. Consider GGCTTAATGG, for which the switch fluorescence ratio is 1.01 ± 0.023. For the sequence GGCTTCTGAT, the switch fluorescence ratio amounted to 0.999 ± 0.022.

As to GGCTTGGAAA, the switch fluorescence ratio worked out at 0.973 ± 0.011. As to GGCTTGGAAT, the switch fluorescence ratio worked out at 0.989 ± 0.011.

In the case of GGCTTGGGAA, the switch fluorescence ratio came to 0.968 ± 0.027. With GGCTTGGGGC the figure was 0.9756 ± 0.0032. With GGCTTGGGTG the figure was 1.08 ± 0.032. With GGCTTGGTGT the figure was 1 ± 0.013; with GGCTTTTTGG, 0.99 ± 0.02.

As to GGCTTTTTTA, the switch fluorescence ratio is 1.05 ± 0.028. Turning to GGGAAAAGGA, the switch fluorescence ratio was 1.018 ± 0.0094. Take GGGAAAAGGT: the switch fluorescence ratio was 1.04 ± 0.021. In the case of GGGAAAATTA, the switch fluorescence ratio stood at 0.997 ± 0.019.

Regarding GGGAAACGGT, the switch fluorescence ratio was 1.03 ± 0.011. With GGGAAACTTG the figure was 0.988 ± 0.017; with GGGAAAGGAA, 0.989 ± 0.018; with GGGAAAGGGG, 1.01 ± 0.02. For GGGAAAGTCG the value was 1 ± 0.036; for GGGAACATTT, 1.022 ± 0.0086. For GGGAACGTCG the value was 1.011 ± 0.01; for GGGAACGTGT, 0.997 ± 0.019. As for GGGAAGAAGC, the switch fluorescence ratio stood at 0.997 ± 0.054. For GGGAAGAGTG the value was 0.993 ± 0.02; for GGGAAGATTA, 0.966 ± 0.031. Take GGGAAGGTGT: the switch fluorescence ratio was 1.1 ± 0.11.

With GGGAAGGTTG, the switch fluorescence ratio amounted to 1.04 ± 0.021.

GGGAAGTATA: the switch fluorescence ratio stood at 1 ± 0.027.

Turning to GGGAAGTCGT, the switch fluorescence ratio was 0.964 ± 0.039.

For the sequence GGGAATACTA, the switch fluorescence ratio came to 1.38 ± 0.37.

For the sequence GGGAATAGT, the switch fluorescence ratio worked out at 0.9898 ± 0.0014.

GGGAATGCTA: the switch fluorescence ratio amounted to 0.9999 ± 0.0068. GGGAATGTAT: the switch fluorescence ratio turned out to be 0.979 ± 0.037. For the sequence GGGAATTATA, the switch fluorescence ratio stood at 0.984 ± 0.018. For GGGAATTCTA the value was 0.991 ± 0.021; for GGGAATTGGG, 0.997 ± 0.018; for GGGAATTGTG, 0.993 ± 0.06. For GGGACCAATT the value was 1 ± 0.022.

In the case of GGGACGACAG, the switch fluorescence ratio came out at 1.04 ± 0.031. Regarding GGGACGATTG, the switch fluorescence ratio came to 0.985 ± 0.059. Turning to GGGACGGATT, the switch fluorescence ratio was found to be 1 ± 0.021. For GGGACTAGTG the value was 1 ± 0.029. For GGGACTGGTA the value was 1 ± 0.049; for GGGACTTACC, 1.08 ± 0.02. For GGGACTTGGA the value was 0.9765 ± 0.009; for GGGACTTTTT, 0.999 ± 0.043; for GGGAGAAAAG, 0.984 ± 0.014. On to GGGAGAATGG, for which the switch fluorescence ratio is 0.98 ± 0.028. For GGGAGACCAA the value was 0.9822 ± 0.0031; for GGGAGAGAAC, 0.992 ± 0.012. With GGGAGAGAGT the figure was 0.999 ± 0.029; with GGGAGAGCGG, 0.9662 ± 0.0095; with GGGAGAGGCT, 0.9764 ± 0.0016. For GGGAGATAGC the value was 1.06 ± 0.015; for GGGAGATTAG, 0.979 ± 0.015; for GGGAGCAGGG, 0.909 ± 0.058. Consider GGGAGCCGGT, for which the switch fluorescence ratio is 1.02 ± 0.015. As for GGGAGCCTAC, the switch fluorescence ratio is 1.038 ± 0.0081. For the sequence GGGAGCCTTC, the switch fluorescence ratio turned out to be 1.01 ± 0.031.

As to GGGAGCGGGT, the switch fluorescence ratio was 1.04 ± 0.025.

As for GGGAGCTACA, the switch fluorescence ratio amounted to 1.02 ± 0.017. With GGGAGCTGAA the figure was 1.04 ± 0.04; with GGGAGCTGAG, 1.015 ± 0.0055.

Regarding GGGAGGAGGA, the switch fluorescence ratio was determined as 0.974 ± 0.026.

In the case of GGGAGGATGC, the switch fluorescence ratio was determined as 0.993 ± 0.059. For the sequence GGGAGGCGGG, the switch fluorescence ratio is 0.99 ± 0.019. For GGGAGGGAGT the value was 1.01 ± 0.024. For GGGAGGGATG, the switch fluorescence ratio amounted to 1.02 ± 0.024. On to GGGAGGGCGG, for which the switch fluorescence ratio is 0.975 ± 0.051. With GGGAGGGCGT the figure was 0.981 ± 0.034; with GGGAGGGCTT, 1.05 ± 0.092; with GGGAGGTCAG, 0.992 ± 0.035. For GGGAGGTTGC the value was 1.09 ± 0.23; for GGGAGGTTTT, 1.04 ± 0.084; for GGGAGTAGGC, 0.731 ± 0.022. For GGGAGTAGGT the value was 1.008 ± 0.0094; for GGGAGTCGGG, 1.01 ± 0.0092. For GGGAGTGATG, the switch fluorescence ratio turned out to be 0.986 ± 0.019. With GGGAGTTAAT the figure was 0.97 ± 0.019; with GGGATAACGG, 0.962 ± 0.018; with GGGATAAGGA, 0.99 ± 0.044. With GGGATAAGGG the figure was 1.01 ± 0.027; with GGGATAATTA, 1.01 ± 0.029. On to GGGATAGAGG, for which the switch fluorescence ratio is 0.999 ± 0.051. As for GGGATAGCCG, the switch fluorescence ratio was 1 ± 0.059. With GGGATAGGCA the figure was 1.01 ± 0.039; with GGGATAGGGT, 1 ± 0.027. On to GGGATATAGT, for which the switch fluorescence ratio amounted to 0.9696 ± 0.0044.

In the case of GGGATATGAA, the switch fluorescence ratio turned out to be 0.992 ± 0.018. With GGGATATGGG, the switch fluorescence ratio turned out to be 0.995 ± 0.045.

For GGGATCAGTG, the switch fluorescence ratio came out at 0.995 ± 0.03. With GGGATCATGG, the switch fluorescence ratio was determined as 1.08 ± 0.083. GGGATCCGAC: the switch fluorescence ratio came out at 1.05 ± 0.041. On to GGGATCGGGG, for which the switch fluorescence ratio came out at 0.988 ± 0.019. On to GGGATCGGTT, for which the switch fluorescence ratio stood at 0.982 ± 0.034.

With GGGATCTATA, the switch fluorescence ratio was found to be 0.9721 ± 0.0081. For GGGATCTATG the value was 1.02 ± 0.027; for GGGATGAACT, 1.01 ± 0.013; for GGGATGAAGA, 1 ± 0.013. With GGGATGACGA, the switch fluorescence ratio was determined as 0.98 ± 0.042. Consider GGGATGAGGT, for which the switch fluorescence ratio is 1 ± 0.033. In the case of GGGATGGGAG, the switch fluorescence ratio came to 1.02 ± 0.038.

With GGGATGGGGC, the switch fluorescence ratio was determined as 1.04 ± 0.042. As to GGGATGGGGG, the switch fluorescence ratio was determined as 1 ± 0.043. For GGGATGGTGG the value was 0.991 ± 0.024; for GGGATGTGGT, 1.01 ± 0.023; for GGGATGTTGG, 1.006 ± 0.0071.

As to GGGATTAACT, the switch fluorescence ratio was determined as 1 ± 0.031. Regarding GGGATTAAGA, the switch fluorescence ratio worked out at 0.98 ± 0.026. For GGGATTAATG the value was 1.01 ± 0.015; for GGGATTACGT, 1.03 ± 0.029. With GGGATTATTT the figure was 0.972 ± 0.02; with GGGATTCAG, 1.0226 ± 0.0002. With GGGATTCTTG the figure was 1.01 ± 0.04.
